{"source": "paper PMC5615192", "about": "(mBio, 2017)", "parents": {"B1": {"name": "unnamed (parent)", "chain 1": "EATVYLPPVPVSKVVSTDEYVSRTSIYYYAGSSRLLAVGNPYFSIKSPNNNKKVLVPKVSGLQYRVFRVRLPDPNKFGFPDTSFYNPDTQRLVWACVGLEIGRGQPLGVGVSGHPYLNKFDDTETSNRYPAQPGSDNRECLSMDYKQTQLCLIGCKPPTGEHWGKGVACNNNAAATDCPPLELFNSIIEDGDMVDTGFGCMDFGTLQANKSDVPIDICNSTCKYPDYLKMASEPYGDSLFFFLRREQMFVRHFFNRAGKLGEAVPDDLYIKGSGNTAVIQSSAFFPTPSGSIVTSESQLFNKPYWLQRAQGHNNGICWGNQLFVTVVDTTRSTNMTLCTEVTKEGTYKNDNFKEYVRHVEEYDLQFVFQLCKITLTAEIMTYIHTMDSNILEDWQFGLTPPPSASLQDTYRFVTSQAITCQKTAPPKEKEDPLNKYTFWEVNLKEKFSADLDQFPLGRKFLLQSGLKAKPRLKRSAPTTRAPSTKRKKVKK", "chain 2": "EVQLQQSGAELVRPGALVKLSCKASGFNIKDYYMHWVKQRPEQGLEWIGWIDPENGKTIYDPRFRGKASITADTSSNTAYLQLSSLTSEDAAVYYCATSNYRYDRSFDYWGQGTTLTVSAKTTPPSVYPLAPGCGDTTGSSVTSGCLVKGYFPEPVTVTWNSGSLSSSVHTFPALLQSGLYTMSSSVTVPSSTWPSQTVTCSVAHPASSTTVDKKL", "chain 3": "DIQMTQSPSSLFASLGGKVTITCKASQDINKYIAWFQHKPGKGPRLLIHYTFTLQPGIPSRFSGSGSGRDYSFSISNLEPEDIATYYCLQYHNLYTFGGGTKLEIKRADAAPTVSIFPPSSEQLTSGGASVVCFLNNFYPKDINVKWKIDGSERQNGVLNSWTDQDSKDSTYSMSSTLTLTKDEYERHNSYTCEATHKTSTSPIVKSFNRNEC"}, "B2": {"name": "unnamed (parent)", "chain 1": "B1 chain 2", "chain 2": "B1 chain 3", "chain 3": "B1 chain 1"}}, "data": [{"variants_of": "B1", "assay": "SPR (Biacore)", "settings": "with partner chain of the complex shown; read off a plot", "values": [{"variant": "chain 1 N275A", "Kd": "6.9 -log10, M"}, {"variant": "chain 1 R128A", "Kd": "6 -log10, M"}, {"variant": "chain 1 S135A", "Kd": "8.2 -log10, M"}, {"variant": "chain 1 N137A", "Kd": "8.2 -log10, M"}, {"variant": "chain 1 Q132A", "Kd": "7.9 -log10, M"}]}, {"variants_of": "B2", "assay": "indirect ELISA", "settings": "with partner chain of the complex shown", "units": {"EC50": "µg/mL"}, "values": [{"variant": "chain 3 Q132A", "EC50": 0.0152}, {"variant": "chain 3 S135A", "EC50": 0.0132}, {"variant": "chain 3 N275A", "EC50": 0.0455}, {"variant": "chain 3 D121A", "EC50": 0.0784}, {"variant": "chain 3 N137A", "EC50": 0.011}]}]}
